Assay: soluble fraction after stress (log2 fold change); higher = more stays soluble; pooled small domains, quantitative proteomics
Details: stress: 75 degC
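Further: 20 min heating vs room temperature control held 20 min.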

Sequence | soluble fraction (log2)
HMGFDTVVEKVLGLITSRPMTSRDIQMTLGRSREHTSRLMNRLYKEGLVDRNTSSKPFSYIITEKGREKI | -0.429
HMGFPAPFDGKAVAELRRRLGLTRRGLAEELSVSPSTVDKWEQGDVALRSPALTILKILWHQGLKALPP | -1.78
HMGFSDDEHNALADADLKKALEVTTNKSETQYNIAKLIYSYIISLGDKKPYGDWSYDKALSIIHDA | -0.0187
HMGGAVQIAEQIAARIKDGALRPGELLPPVRQLAAELEVNPNTVASAYARLRDAGLVATRGRAGTVVLEPP | -0.421
HMGGAYATVKLSSSSSQLNVRASASTASRVVARLSHGFRVEVLGVSGDWVKIRALGVEGYVARAYLALEGE | -3.07
HMGGEAEVLQSIDEGREVEVRSVAADGSAEVIYRGARWRARAAVGSLAAGRWTIGRVDGTELVLEK | -0.0609
HMGGEEKALLFGDVDIREAGEITQRLEQAEIPYELRGDGSSIFVPRSRVMEARMMISADGLL | -0.0934
HMGGEKLPAPVAGTLLRYSVAEGARVSEGQTVIILESMKMELEINTPKAGVIHFLAAVGAQVAEGDTLAEI | -3.46
HMGGGTPEERLATLAAIAERQEMLLERLGPNNPLVSLGQYSRTLSRMVQLAGFKDASQYFNELPLDFQMPE | -0.408
HMGGHLAYGFSRRFGLLIDEQQGEPVIIARPDYSPVHYAEARRIVGQPAALRVVDEQAFNQLLQSQQESGA | -0.512
HMGGLENNLKQARNRVGLTQSELARQAGISRQAYSSLESGAANPSTEVALRLAQALSERVESLFYLPE | -0.117
HMGGNVYAYRLTASVKSGEQIPANKIEKVKMLSSDLPTNYVPDTVNVTAYKSKLDLQAGTILSTSLLYEN | -0.591
HMGGPTARQMEVLSLIAQGLPNKRIADELGIAERTVKLHITALLDSLGARNRTHLLVVARERGM | -2.16
HMGGQKTREAIFDLIMTNSKITSAQIAEILGIHRSGVARHLKKLQEEGLIKREGPDNGGQWIVIK | -0.473
HMGGQYQVRPGETLNQIAARVRPSNMSLSETQKAIIQANPDIFKNGNPNLIFAGDILRIPTGNQI | 0.466
HMGGTTLIAKQATVTGDIQFSSNLDIEGRVVGAISVEPGKEAMLHVVEGGSVEGEIRVPSAVINGKVTGDI | 0.0791
HMGGVEWLTHPIGPRDSLQVLARAGLEARPTSDGDYEIYGQERWPQRDQARLMGWLRRFGQWVWQALYDK | -0.569
HMGHEALSSKLDEIQGVGKEKRSLLLDHFKTFERIKNASMEELEAVPSLGKNTAKAVFRFFHS | -0.0805
HMGHLTWTVTGIGHERRARTVAEQMSSVFGVLEARASSAGTVYLEFEREKIDEGGLEASLKRMGVTRVV | -2.02
HMGIAFDYDAGRFDQVPPNLVEKWQQAYPAVDVLSELRRMEAWASANPVNRKSNWQRFIVNWLTRAQDRAG | -0.859
HMGIAKYRQVTEWIQNRIATGELNRGDQIESENDISRTFGISRQTVRHALGLLEQQGILTRIQGRGTFVRD | -1.45
HMGIFDIIQEINRQGVTVLLIEQNANMALKIADVGYVLETGRISLTGSGRELLANEAVKKAYL | -1.29
HMGIKYTNQRVEILNFLKDNLSHPTVDDVYEGVKKKLTRISKATVYQNLKFLASKGLIQEVNIKGVSRFEP | -1.98

Sequence | soluble fraction (log2)
HMGIRQGKVTSTFVNVRSGASTANAKVGELHKGDVVSLIEKVANFWRIGPGQFVSADYIQVLAS | -2.07
HMGIRYQLADDVTDEQITAMTGKKAKIAAAIKAAGSAVSKMNVAGEMGYDKQNPINKDFMELVDAGIIVPS | -0.0507
HMGISEKVINIIETYTMIARKKYPSVKSLAEHFNVSERTVHRYLEIIKMIDVVDYDREKKGYFFPYGDR | -3.08
HMGISSESIKTFIREIVENEDPKAPLSDQTMVELLAERGIDISRRTVAKYRDEMNLPSSSKRKR | 0.87
HMGKAMIDWEREQSILRILLRQKALTTEQAREVYQDGMREDLSALEMGVQRGYFTHEQLREATGGE | -0.278
HMGKASNEVYEVISSKIRTGEWAPGYKLPSEPTLAEEFGVSRATVREALQELISRGRIKREQGRGTYVLH | -0.0316
HMGKAVTLEEARAIIQAKVPGASPDMIQIWEEHGDGRGRYEGELSYNNMKYEFEMDPKTGIIFDWNA | -0.0538
HMGKEDISQINKLYQNQILDYETYIDTLNSFNIDTKSKDFKNLLDLFIKKSISFETFNKGIINIHNKS | 0.328
HMGKFMVQVGAFSRINGAEITRTKYDNLGTHKAIIKNLDGMNRVFLTGFLSEDEARDFIASSNLKGAFIIR | -2.13
HMGKGVDKIMKMADDYSYGKIAGKTVDVMTAKLFQAAYNKAPQKAKDKVDKMNEKQLYIFMMNLWKRF | -0.768
HMGKIILLFSDDDGVFDTALYRVRNYDGHRFAQSLGNAEMKWRHSEDEYFDFVLTSLREDGYDIEEIE | -1.18
HMGKIINMSKVKQVLRLHTQGVSNRRIALDLGLYKGTVNSYIRKIKDHGYDIAEVLKLDDPVLESKLFA | -0.335
HMGKKGPELNDNEKIIFNIISKENSMNLDDLKNRTELSNKQWDKAIKGLRSHELVNIEKIDDQLLIHL | 0.0386
HMGKKQLVVDLQSIITDVPAALKSYGLEIGQDGKSLIYTYDTKGERTGITTLLNDLQKAGLQMTDMKTQQ | -0.0104
HMGKPTPASQVATRWLAGDLPETLPVAGPAPSFETLARSVSTDFHPRAVLQELLRLGVAEEADGRVRLLK | -0.212
HMGKQPLYEQLVDLLRDRIENDMETGELLPSERKLAHHFGLSRTTVRLAMDRLETLGLITRVHGKDTFVAE | -1.52
HMGKREKTKVANRQAILVAARAVFAELGYEAATVRDIIRGTDLASGTFYNYFKSKEEVFDALADDGA | -1.73
HMGKSETALELIKRGHRLIADDAVEITRIGSTLSGTAPELIRNYLEVRGVGVIDVEKLFGVGAVQDSTQI | 0.0405
HMGKSPLDALSAREKEVLTYITRGVSINDIAAVLYLSPKTVSTHKTNLMQKLGIENNADLILFGVNHGLND | -1.51
HMGLIAPMPGQIRSVAVSVGDVVKKGQTLLTMEAMKMEIRIQALKDGRVTALHAAQGQTVEGEQILIEVE | -2.32
HMGLLEMPSERERQVLVLIAEGLSNKEIAARLYLTEGTVKNHAHSLYAKLNVTTRTLAIARARQLGI | -1.37
HMGLLLSQLDKDYQRYIDLADSTFRDNQLAVSRGWYNRALGVKAAEKYPKDQIAEIEKKIAERM | -0.598
HMGLNEGLNEGQQKVIQHIQENEGIKVKEISLKLNMPIDTVDRHIRVLKNLNLIERRGSRKTGGYFISN | -0.461

Sequence | soluble fraction (log2)
HMGLNELQVKLNEAMQRLSLKHRTVVVMHDIEGIPHDEIAKIVGVSVGTIRSRLFYARRQLQADLGEY | -2.32
HMGLNNVSDILRLDFNSFKKKFDKLPSGYKNSVVEQAALMIKSGELDSIKIKDYIEKSMGIELDI | -0.511
HMGLQDLFLNSLRKSKTPVTMFLVKGVKLQGVVTWFDNFSVLLRRDGMSQLVYKHSISTIMP | -0.0352
HMGLSARIAQRIHGLRTAQRMSLEALAARSGVSRSMISLIERNEASPTAVVLEKIATGLNVVLAALFDTP | -1.76
HMGLSNYEFNSISQTVKEKLEQGPLTLKALVDETAHLFAEDKVVSVVQWLIDQRDLAYDDHGLLQWKG | -0.792
HMGLTLREKMGHVLEMLKGREFLPFVSLFTVEEGRIGVVVTFMSILELVKEGILDLVQTESFGPIHVKAR | -0.541
HMGMAETTARILQLLGLLQSRRGWSGQELAERLGVTTRSVRRDVERLRELGYPVHASAGHGGGYQLGA | -2.18
HMGMGDALRILFNQAMLIEREQYLQAGAYERNENPVNYANGFKAKTLNTRVGALEVAVPQTRDSAFYPSFL | 0.0631
HMGMLATFVTSAKVPDDVVYAITKEVFENLDEFKKLHPALEGLTRETMLEGLTAPIHPGALKYYKEAGLM | -0.533
HMGMSQQKQSSTVRIIMQDISDANEGLMKMSQIIDAALAEGISETIVRNAISNLHRGGTIYESQTGTYQW | -0.196
HMGMTDEELNREEERVVAELEAKDEEELTIYNEEDLTFEETLDLPEGSLMRDRENGMIYLKVLDIWMPY | -0.575
HMGMTNRIKELRKAKGYRQEDLAAALGVSRQTIIAVENNKYNPTLELAMKLARHLQTTVEELFQL | -2.01
HMGMVEFEIGERDHSEDVSRKLFEAGLIEDASDFNQYMIEKKMDDHLQTGKYQIPKGATKDEILELIVR | 0.043
HMGMYAEERHQAIASLARKHGRVSVAELAERFNVTSETIRRDLDSLARRGLLTRVHGGAVPVE | 0.0144
HMGMYFTEMRKNEGLIALNGVAESNKRVSDLMDNLKDSSSFDAADIKAVKSGSGDASSLMDFELLVT | -0.0643
HMGNASQAARRQRIVDAALELLQDRPYDQIQMRDVAEGAGVALGTLYRYFPSKEQLFAHVLVE | -0.286
HMGNEMQVPNVAGKTVDEAIEIFNNMGLKVAAENKYAQSDDVKEGDVVKTDPSSGRNVKKGSEITLYISQG | 0.375
HMGNEVMYRQDLSEQELLSFIKKYTGQDEVTHIVVGAPKQRDNTPSPVETKITPFVVQLKAQFPDVNVV | 0.0976
HMGNFNDMLKYLRVREKMSQAELADKLGVSKSTVGMYELGKREPDFETLEAIADLFNVDMNFLLGK | -0.423
HMGNHMSFKMWGEQLQEAFRALETYDTQKAKTILNELVRFPIDSDITKALKGIISNIDDMMA | -0.881
HMGNLPPAVINARIKVSPAGRGVFVGFDKGSTSTEAKYADAIRGYLPNIEFNKDDHESVVTVPFNFR | -0.0124
HMGNTLAYSEFRQKVQEGAVKQVVLSEDRVTGELTNGDRFTANIVRDPELLKMLNDNNVKYDGKPT | 0.154
HMGNVGEAIEALVKGFQEGNQFQTLLGVTGSGKTFTMANVIAALNKPTLIISHNKTLAAQLYLSLIHIS | 0.277

From the domain aggregation screens of Martell et al. (2025)
